Results as given in paper PMC3582384 (Biochemistry, 2013).

Experiments:
[1] = target: RsLOV (Cereibacter sphaeroides, UniProt M1E1F8); assay: X-ray crystallography; assay type: binding; conditions: dark state, noncovalent; 1.9 Å
[2] = target: A138Y RsLOV variant (Rhodobacter sphaeroides ATCC 17025); assay: SEC
[3] = target: LOV domain protein of Rhodobacter sphaeroides (RsLOV), wild type (Rhodobacter sphaeroides ATCC 17025); assay: SEC

Cc1cc2nc3c(=O)[nH]c(=O)nc-3n(C[C@H](O)[C@H](O)[C@H](O)COP(=O)(O)O)c2cc1C [FMN]
X-ray crystallography [1]: The Val32 side chain does not extend as far into the FMN pocket as Leu

A138Y RsLOV variant (natural protein)
stoichiometry N [2]: 2

LOV domain protein of Rhodobacter sphaeroides (RsLOV), wild type (natural protein)
stoichiometry N [3]: 2
